Experimental data reported in patent US20090155873A1, “BIOFUEL PRODUCTION” (BIO ARCHITECTURE LAB, INC., priority 2007, published 2009).

B1: ADH9: alcohol dehydrogenase ADH9 Atu4087 isolated from Agrobacterium tumefaciens C58, SEQ ID NO:86 (protein)
chain: MKAIVAHGAKDVRIEDRPEEKPGPGEVRLRLARGGICGSDLHYYNHGGFGAVRLREPMVLGHEVSAVIEELGEGVEGLKIGGLVAVSPSRPCRTCRFCQEGLHNQCLNMRFYGSAMPFPHIQGAFREILVADALQCVPADGLSAGEAAMAEPLAVTLHATRRAGDLLGKRVLVTGCGPIGILSILAARRAGAAEIVATDLSDFTLGKAREAGADRVINSKDEPDALAAYGANKGTFDILYECSGAAVALAGGITALRPRGIIVQLGLGGDMSLPMMAITAKELDLRGSFRFHEEFATGVELMRKGLIDVKPFITQTVDLADAISAFEFASDRSRAMKVQIAFS
modifications: Agrobacterium tumefaciens C58
B2: 2ADH-8: secondary alcohol dehydrogenase isolated from Pseudomonas putida KT2440, SEQ ID NO:124 (protein)
chain: MSLQGKVALVTGASRGIGQAIALELGRQGATVIGTATSASGAERIAATLKEHGITGTGMELNVTSAESVEAVLAAIGEQFGAPAILVNNAGITRDNLMLRMKDDEWFDVIDTNLNSLYRLSKGVLRGMTKARWGRIISIGSVVGAMGNAGQANYAAAKAGLEGFSRALAREVGSRGITVNSVTPGFIDTDMTRELPEAQREALQTQIPLGRLGQADEIAKVVSFLASDGAAYVTGATVPVNGGMYM
modifications: Pseudomonas putida KT2440
B3: ADH4: alcohol dehydrogenase ADH4 Atu5240 isolated from Agrobacterium tumefaciens C58, SEQ ID NO:76 (protein)
chain: MTGANQPWEVQEVPVPKAEPGLVLVKIHASGMCYTDVWATQGAGGDIYPQTPGHEVVGEIIEVGAGVHTRKVGDRVGTTWVQSSCGRCSYCRQNRPLTGQTAMNCDSPRTTGFATQGGHAEYIAISAEGTVLLPDGLDYTDAAPMMCAGYTTWSGLRDAEPKPGDRIAVLGIGGLGHVAVQFSKALGFETIAITHSPDKHKLATDLGADIVVADGKELLEAGGADVLLVTTNDFDTAEKAMAGVRPDGRIVLCALDFSKPFSIPSDGKPFHMMRQRVVGSTHGGQHYLAEILDLAAKGKVKPIVETFALEQATEAYERLSTGKMRFRGVFLPHGA
modifications: Agrobacterium tumefaciens C58
B4: ADH3: alcohol dehydrogenase ADH3 Atu0626 isolated from Agrobacterium tumefaciens C58, SEQ ID NO:74 (protein)
chain: MTKTMKAAVVRAFGKPLTIEEVAIPDPGPGEILINYKATGVCHTDLHAATGDWPVKPNPPFIPGHEGAGYVAKIGAGVTGIKEGDRAGTPWLYTACGCCIPCRTGWETLCPSQKNSGYSVNGSFAEYGLADPKFVGRLPDNLDFGPAAPVLCAGVTVYKGLKETEVRPGEWVVISGIGGLGHMAVQYAKAMGMHVVAADIFDDKLALAKKLGADVVVNGRAPDAVEQVQKATGGVHGALVTAVSPKAMEQAYGFLRSKGTMALVGLPPGFISIPVFDTVLKRITVRGSIVGTRQDLEEALTFAGEGKVAAHFSWDKLENINDIFHRMEEGKIDGRIVVDLAA
modifications: Agrobacterium tumefaciens C58
B5: 2ADH-5: secondary alcohol dehydrogenase isolated from Pseudomonas putida KT2440, SEQ ID NO:118 (protein)
chain: MSKQLTLEGKVALVQGGSRGIGAAIVRRLAREGAQVAFTYVSSAGPAEELAREITENGGKALALRADSADAAAVQLAVDDTEKALGRLDILVNNAGVLAVAPVTEFDLADFDHMLAVNVRSVFVASQAAARYMGQGGRIINIGSTNAERMPFAGGAPYAMSKSALVGLTRGMARDLGPQGITVNNVQPGPVDTDMNPASGEFAESLIPLMAIGRYGEPEEIASFVAYLAGPEAGYITGASLTVDGGFAA
modifications: Pseudomonas putida KT2440

Experiments:
[1] = Assay for D-mannuronate hydrogenase (NADPH dependent hydrogenation); assay type: biochemical; details: cell lysate, absorbance at 340 nm for 30 min, FIG. 7B
Experimental: To identify D-mannuronate hydrogenase, a NADPH dependent D-mannuronate hydrogenation assay was performed. 20 μl of prepared cell lysate containing each ADH was added to 160 μl of D-mannuronate solution prepared in the above section. 20 μl of 2.5 mg/ml of NADPH solution (20 mM Tris-HCl, pH 8.0) was added to initiate the hydrogenation reaction. The consumption of NADPH was monitored an absorbance at 340 nm for 30 min using the kinetic mode of ThermoMAX 96 well plate reader (Molecular Devises). E. coli cell lysate containing alcohol dehydrogenase (ADH) 10 lacking a portion of N-terminal domain was used in a control reaction mixture.

[2] = NADPH Production Assay (oxidation of 4-octanol); assay type: biochemical; details: NADP+, 30° C., FIG. 30B
Experimental: Various secondary alcohol dehydrogenases (2ADHs) were isolated from Pseudomonas putida KT2440, Pseudomonas fluorescens Pf-5, and Klebsiella pneumoniae MGH 78578. All vectors were transformed in BL21(DE3) competent cells and expression of the genes encoding the proteins of interest was induced with IPTG (via the T7 promoter). The cells were lysed, proteins were extracted and then purified on Ni-NTA columns. Final protein concentration in the Ni-NTA eluate was diluted to 0.15 mg/mL prior to assays.
[…] consumption and production assays were performed using a THERMOmax microplate reader in the kinetic mode, monitoring the NADPH absorbance peak at 340 nm until the reaction reached equilibrium. […] These reaction conditions are found in Table 4 below.

Molecule	mannuronate hydrogenase activity monitored by NADPH consumption [1]	oxidation of 4-octanol measured by NADPH production [2]
B1	significant mannuronate hydrogenase activity	–
B2	–	catalyze the oxidation of 4-octanol in the presence of NADP+
B3	significant mannuronate hydrogenase activity	–
B4	significant mannuronate hydrogenase activity	–
B5	–	catalyze the oxidation of 4-octanol in the presence of NADP+
